# Patent US20240261333A1, “NOVEL TARGETS FOR ENHANCING ANTI-TUMOR IMMUNITY” (THE BROAD INSTITUTE, INC., priority 2021, published 2024)
# T1: B3GNT2 (Homo sapiens, UniProt Q9NY97)
# T1 construct: The respective ORFs of candidate genes [CD274 (NM_014143), MCL1 (NM_021960), JUNB (NM_002229), and B3GNT2 (NM_006577)] were synthesized; expressed in transfected cells; host or cells: A375 melanoma cells (lentiviral ORF overexpression)
# T1 sequence (Q9NY97 1-397): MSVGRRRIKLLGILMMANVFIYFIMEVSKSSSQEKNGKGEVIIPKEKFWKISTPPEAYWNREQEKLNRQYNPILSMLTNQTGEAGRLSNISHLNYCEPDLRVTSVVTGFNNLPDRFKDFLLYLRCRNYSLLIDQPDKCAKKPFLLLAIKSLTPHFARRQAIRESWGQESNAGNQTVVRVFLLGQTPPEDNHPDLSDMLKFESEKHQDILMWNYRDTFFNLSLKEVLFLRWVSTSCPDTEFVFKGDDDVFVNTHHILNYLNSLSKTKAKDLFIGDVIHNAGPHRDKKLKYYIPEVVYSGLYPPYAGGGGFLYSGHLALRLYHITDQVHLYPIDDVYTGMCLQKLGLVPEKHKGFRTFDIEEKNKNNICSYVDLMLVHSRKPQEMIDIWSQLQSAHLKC
# Biological target: T1, B3GNT2
# Experiment: Co-IP of FLAG-tagged B3GNT2 followed by mass spectrometry
# Assay type: cell-based
# Parameters: C-term IgG / C-term flag: unit not given here
# Conditions: Co-IP followed by mass spectrometry of B3GNT2; for C-term flag / C-term IgG: C-term tag; for C-term flag / N-term FLAG: FLAG pull-down; for C-term IgG / N-term IgG: IgG pull-down; for N-term FLAG / N-term IgG: N-term tag
# In short: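 Co-purifying proteins were identified by fractionated nano-LC–MS/MS on an Orbitrap Elite, run data-dependent. Beforehand, lysates in 1% Triton X-100/HEPES buffer were incubated overnight at 4° C with anti-FLAG or […] and pulled down on Protein A/G magnetic beads for 4 h. Duplicate biological replicates.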
molecule,measurement,value
PLOD1 (protein) KGDAKPEDNLLVLTVATKETEGFRRFKRSAQFFNYKIQALGLGEDWNVEKGTSAGGGQKVRLLKKALEKHADKEDLVILFADSYDVLFASGPRELLKKFRQARSQVVFSAEELIYPDRRLETKYPVVSDGKRFLGSGGFIGYAPNLSKLVAEWEGQDSDSDQLFYTKIFLDPEKREQINITLDHRCRIFQNLDGALDEVVLKFEMGHVRARNLAYDTLPVLIHGNGPTKLQLNYLGNYIPRFWTFETGCTVCDEGLRSLKGIGDEALPTVLVGVFIEQPTPFVSLFFQRLLRLHYPQKHMRLFIHNHEQHHKAQVEEFLAQHGSEYQSVKLVGPEVRMANADARNMGADLCRQDRSCTYYFSVDADVALTEPNSLRLLIQQNKNVIAPLMTRHGRLWSNFWGALSADGYYARSEDYVDIVQGRRVGVWNVPYISNIYLIKGSALRGELQSSDLFHHSKLDPDMAFCANIRQQDVFMFLTNRHTLGHLLSLDSYRTTHLHNDLWEVFSNPEDWKEKYIHQNYTKALAGKLVETPCPDVYWFPIFTEVACDELVEEMEHFGQWSLGNNKDNRIQGGYENVPTIDIHMNQIGFEREWHKFLLEYIAPMTEKLYPGYYTRAQFDLAFVVRYKPDEQPSLMPHHDASTFTINIALNRVGVDYEGGGCRFLRYNCSIRAPRKGWTLMHPGRLTHYHEGLPTTRGTRYIAVSFVDP,C-term flag,4
same,C-term IgG,0
same,N-term FLAG,0
same,N-term IgG,0
JUP (protein) MEVMNLMEQPIKVTEWQQTYTYDSGIHSGANTCVPSVSSKGIMEEDEACGRQYTLKKTTTYTQGVPPSQGDLEYQMSTTARAKRVREAMCPGVSGEDSSLLLATQVEGQATNLQRLAEPSQLLKSAIVHLINYQDDAELATRALPELTKLLNDEDPVVVTKAAMIVNQLSKKEASRRALMGSPQLVAAVVRTMQNTSDLDTARCTTSILHNLSHHREGLLAIFKSGGIPALVRMLSSPVESVLFYAITTLHNLLLYQEGAKMAVRLADGLQKMVPLLNKNNPKFLAITTDCLQLLAYGNQESKLIILANGGPQALVQIMRNYSYEKLLWTTSRVLKVLSVCPSNKPAIVEAGGMQALGKHLTSNSPRLVQNCLWTLRNLSDVATKQEGLESVLKILVNQLSVDDVNVLTCATGTLSNLTCNNSKNKTLVTQNSGVEALIHAILRAGDKDDITEPAVCALRHLTSRHPEAEMAQNSVRLNYGIPAIVKLLNQPNQWPLVKATIGLIRNLALCPANHAPLQEAAVIPRLVQLLVKAHQDAQRHVAAGTQQPYTDGVRMEEIVEGCTGALHILARDPMNRMEIFRLNTIPLFVQLLYSSVENIQRVAAGVLCELAQDKEAADAIDAEGASAPLMELLHSRNEGTATYAAAVLFRISEDKNPDYRKRVSVELTNSLFKHDPAAWEAAQSMIPINEPYGDDMDATYRPMYSSDVPLDPLEMHMDMDGDYPIDTYSDGLRPPYPTADHMLA,C-term flag,43
same,C-term IgG,36
same,N-term FLAG,47
same,N-term IgG,39
XPOT (protein) MDEQALLGLNPNADSDFRQRALAYFEQLKISPDAWQVCAEALAQRTYSDDHVKFFCFQVLEHQVKYKYSELTTVQQQLIRETLISWLQAQMLNPQPEKTFIRNKAAQVFALLFVTEYLTKWPKFFFDILSVVDLNPRGVDLYLRILMAIDSELVDRDVVHTSEEARRNTLIKDTMREQCIPNLVESWYQILQNYQFTNSEVTCQCLEVVGAYVSWIDLSLIANDRFINMLLGHMSIEVLREEACDCLFEVVNKGMDPVDKMKLVESLCQVLQSAGFFSIDQEEDVDFLARFSKLVNGMGQSLIVSWSKLIKNGDIKNAQEALQAIETKVALMLQLLIHEDDDISSNIIGFCYDYLHILKQLTVLSDQQKANVEAIMLAVMKKLTYDEEYNFENEGEDEAMFVEYRKQLKLLLDRLAQVSPELLLASVRRVFSSTLQNWQTTRFMEVEVAIRLLYMLAEALPVSHGAHFSGDVSKASALQDMMRTLVTSGVSSYQHTSVTLEFFETVVRYEKFFTVEPQHIPCVLMAFLDHRGLRHSSAKVRSRTAYLFSRFVKSLNKQMNPFIEDILNRIQDLLELSPPENGHQSLLSSDDQLFIYETAGVLIVNSEYPAERKQALMRNLLTPLMEKFKILLEKLMLAQDEERQASLADCLNHAVGFASRTSKAFSNKQTVKQCGCSEVYLDCLQTFLPALSCPLQKDILRSGVRTFLHRMIICLEEEVLPFIPSASEHMLKDCEAKDLQEFIPLINQITAKFKIQVSPFLQQMFMPLLHAIFEVLLRPAEENDQSAALEKQMLRRSYFAFLQTVTGSGMSEVIANQGAENVERVLVTVIQGAVEYPDPIAQKTCFIILSKLVELWGGKDGPVGFADFVYKHIVPACFLAPLKQTFDLADAQTVLALSECAVTLKTIHLKRGPECVQYLQQEYLPSLQVAPEIIQEFCQALQQPDAKVFKNYLKVFFQRAKP,C-term flag,2
same,C-term IgG,0
same,N-term FLAG,2
same,N-term IgG,0
DDX3X (protein) SHVAVENALGLDQQFAGLDLNSSDNQSGGSTASKGRYIPPHLRNREATKGFYDKDSSGWSSSKDKDAYSSFGSRSDSRGKSSFFSDRGSGSRGRFDDRGRSDYDGIGSRGDRSGFGKFERGGNSRWCDKSDEDDWSKPLPPSERLEQELFSGGNTGINFEKYDDIPVEATGNNCPPHIESFSDVEMGEIIMGNIELTRYTRPTPVQKHAIPIIKEKRDLMACAQTGSGKTAAFLLPILSQIYSDGPGEALRAMKENGRYGRRKQYPISLVLAPTRELAVQIYEEARKFSYRSRVRPCVVYGGADIGQQIRDLERGCHLLVATPGRLVDMMERGKIGLDFCKYLVLDEADRMLDMGFEPQIRRIVEQDTMPPKGVRHTMMFSATFPKEIQMLARDFLDEYIFLAVGRVGSTSENITQKVVWVEESDKRSFLLDLLNATGKDSLTLVFVETKKGADSLEDFLYHEGYACTSIHGDRSQRDREEALHQFRSGKSPILVATAVAARGLDISNVKHVINFDLPSDIEEYVHRIGRTGRVGNLGLATSFFNERNINITKDLLDLLVEAKQEVPSWLENMAYEHHYKGSSRGRSKSSRFSGGFGARDYRQSSGASSSSFSSSRASSSRSGGGGHGSSRGFGGGGYGGFYNSDGYGGNYNSQGVDWWGN,C-term flag,23
same,C-term IgG,15
same,N-term FLAG,18
same,N-term IgG,19
P4HA2 (protein) EFFTSIGHMTDLIYAEKELVQSLKEYILVEEAKLSKIKSWANKMEALTSKSAADAEGYLAHPVNAYKLVKRLNTDWPALEDLVLQDSAAGFIANLSVQRQFFPTDEDEIGAAKALMRLQDTYRLDPGTISRGELPGTKYQAMLSVDDCFGMGRSAYNEGDYYHTVLWMEQVLKQLDAGEEATTTKSQVLDYLSYAVFQLGDLHRALELTRRLLSLDPSHERAGGNLRYFEQLLEEEREKTLTNQTEAELATPEGIYERPVDYLPERDVYESLCRGEGVKLTPRRQKRLFCRYHHGNRAPQLLIAPFKEEDEWDSPHIVRYYDVMSDEEIERIKEIAKPKLARATVRDPKTGVLTVASYRVSKSSWLEEDDDPVVARVNRRMQHITGLTVKTAELLQVANYGVGGQYEPHFDFSRNDERDTFKHLGTGNRVATFLNYMSDVEAGGATVFPDLGAAIWPKKGTAVFWYNLLRSGEGDYRTRHAACPVLVGCKWVSNKWFHERGQEFLRPCGSTEVD,C-term flag,4
same,C-term IgG,0
same,N-term FLAG,0
same,N-term IgG,0
DDX17 (protein) MPTGFVAPILCVLLPSPTREAATVASATGDSASERESAAPAAAPTAEAPPPSVVTRPEPQALPSPAIRAPLPDLYPFGTMRGGGFGDRDRDRDRGGFGARGGGGLPPKKFGNPGERLRKKKWDLSELPKFEKNFYVEHPEVARLTPYEVDELRRKKEITVRGGDVCPKPVFAFHHANFPQYVMDVLMDQHFTEPTPIQCQGFPLALSGRDMVGIAQTGSGKTLAYLLPAIVHINHQPYLERGDGPICLVLAPTRELAQQVQQVADDYGKCSRLKSTCIYGGAPKGPQIRDLERGVEICIATPGRLIDFLESGKTNLRRCTYLVLDEADRMLDMGFEPQIRKIVDQIRPDRQTLMWSATWPKEVRQLAEDFLRDYTQINVGNLELSANHNILQIVDVCMESEKDHKLIQLMEEIMAEKENKTIIFVETKRRCDDLTRRMRRDGWPAMCIHGDKSQPERDWVLNEFRSGKAPILIATDVASRGLDVEDVKFVINYDYPNSSEDYVHRIGRTARSTNKGTAYTFFTPGNLKQARELIKVLEEANQAINPKLMQLVDHRGGGGGGGGRSRYRTTSSANNPNLMYQDECDRRLRGVKDGGRRDSASYRDRSETDRAGYANGSGYGSPNSAFGAQAGQYTYGQGTYGAAAYGTSSYTAQEYGAGTYGASSTTSTGRSSQSSSQQFSGIGRSGQQPQPLMSQQFAQPPGATNMIGYMGQTAYQYPPPPPPPPPSRK,C-term flag,30
same,C-term IgG,22
same,N-term FLAG,23
same,N-term IgG,23
